Patent publication US20260209316A1 (US Dept. of Health and Human Services, published 2026)
Read-outs that look alike come from different tables or passages of the source.

What was measured:
[1] = molecular target: T1, mucin domain-deleted Sudan GP (GPdMuc) (Sudan virus (SUDV), UniProt Q7T9D9 33-632); test: BLI, Fab, pH 5.3
T1 construct: also called Sudan GPdMuc; GP(S)dMuc

[2] = molecular target: T1, mucin domain-deleted Sudan GP (GPdMuc); test: BLI, Fab, pH 7.4
[3] = molecular target: T2, mucin domain-deleted Zaire GP (GPdMuc) (Ebola (Zaire) virus (EBOV), UniProt Q05320 33-632); test: BLI, Fab, pH 7.4
T2 construct: also called Zaire GPdMuc; GP(Z)dMuc

[4] = molecular target: T1, mucin domain-deleted Sudan GP (GPdMuc); test: ELISA on coated GP
[5] = molecular target: T2, mucin domain-deleted Zaire GP (GPdMuc); test: ELISA on coated GP
[6] = molecular target: T1, mucin domain-deleted Sudan GP (GPdMuc); test: ELISA on coated GP; remark: listed apart in the source
[7] = molecular target: T1, mucin domain-deleted Sudan GP (GPdMuc); test: BLI competition on Sudan GPdMuc (lower table); competitor 16F6
[8] = molecular target: T1, mucin domain-deleted Sudan GP (GPdMuc); test: BLI competition on Sudan GPdMuc (lower table); competitor 316L
[9] = molecular target: T1, mucin domain-deleted Sudan GP (GPdMuc); test: BLI competition on Sudan GPdMuc (lower table); competitor 15H10
[10] = molecular target: T1, mucin domain-deleted Sudan GP (GPdMuc); test: BLI competition on Sudan GPdMuc (lower table); competitor mAb166

B1: Fab generated from 316L (Fab, V domains shown)
VH: EERLVESGGGLVQPGGSLRLSCAASGFTFGDYAMHWVRQVPGKSLEWLSGISWSGYTTYSADSVKGRFTISRDNAKNSLYLQMNRLRPEDTGLYYCVTLIGAIGIKDSLDVWGRGVLVTVSS
VL: QSVLTQPPSVSGAPGQRVTVSCSGSSSNIGAGNYVQWYQQLPGTAPKVLIYQTEKRPSGTSDRFSGSKSDTSASLTINGLQSEDEADYYCQVYDSNLNGWVFGGGTRLTVL
notes: also called 316L Fab
[1]
  Kd: 460 pM
  koff: 5.26e-05 s⁻¹
  kon: 112000 M⁻¹ s⁻¹
[2]
  Kd: 372 pM
  koff: 5.38e-05 s⁻¹
  kon: 145000 M⁻¹ s⁻¹
[3]
  Kd: 13300 pM
  koff: 0.0015 s⁻¹
  kon: 115000 M⁻¹ s⁻¹

B2: antibody 314L (antibody, V domains shown)
VH: EERLVESGGGLVQPGGSLRLSCAASGFTFGDYAMHWVRQVPGKSLEWLSGISWSGYTTYSADSVKGRFTISRDNAKNSLYLQMNRLRPEDTGLYYCVTLIGAIGIKDSLDVWGRGVLVTVSS
VL: EVVFTQPHSVSGSPGQMVTISCTRSSGTIDNSYVYWHQQRPGSAPTTVIYNDDQRPSGVPDRFSGSIDSSSNSASLTISGLKSEDEADYYCQSYDSSGWVFGGGTRLTVL
[4]
  EC50: 0.31 µg/mL
[5]
  EC50: 2.6 µg/mL

B3: Fab generated from 380L (Fab, V domains shown)
VH: EVQLVESGGGLVQPGGSLTLSCAASGFTFGDYVMHWVRQVPGRGLEWLSAVSWSGYTTYSADSVKGRFTISRDNAKNSLYLQMSRLGTADTGLYYCVTLIGAIGIRDSFDAWGRGVLVTVSS
VL: QSVLTQPPSMSGAPGQRVTVSCTGSSSNIGAGNYVQWYQQLPGTAPKVLIYQTDKRPSGISDRFSGSKSGTSASLTISGLQSEDEADYYCQVYDSSLNGWVFGGGTRLTVL
notes: also called 380L Fab
[1]
  Kd: 640 pM
  koff: 0.000109 s⁻¹
  kon: 172000 M⁻¹ s⁻¹
[2]
  Kd: 567 pM
  koff: 9.54e-05 s⁻¹
  kon: 168000 M⁻¹ s⁻¹
[3]
  Kd: 6640 pM
  koff: 0.000778 s⁻¹
  kon: 118000 M⁻¹ s⁻¹

B4: antibody 365S (antibody, V domains shown)
VH: EVQLVESGGGLVQPGGSLRLSCAASGLTFSAYEMNWVRQAPGKGLEWVSHITTSGSAIYYADSVKGRFTISRDNAKNSLHLQMNRLRADDTAVYFCARDSTIVQCSGTSCHVSTYSYMDVWGKGTTVTVSS
VL: EIVLTQSPATLSLSPGERATLSCRASQSVTTYLAWYQHKPGQAPRLLIYDASKRATGIPARFSGSGSGTDFTLTISSLEPEDFAVYHCQQRSSWPPITFGQGTRLEIK
[6]
  EC50: 0.06 µg/mL
[7]
  % inhibition of binding: 12%
[8]
  % inhibition of binding: 5.16%
[9]
  % inhibition of binding: 9.47%
[10]
  % inhibition of binding: 84.2%

B5: antibody 191L (antibody, V domains shown)
VH: EVQLVESGGGLVQPGGSLRLSCAASGFTFSSYGIHWVRQAPGKGLEWVAIISYDGNKKFHADSVKDRFTISRDNSKNMLYLQMNNLKLEDTAVYYCARAYDSGYFAGSVFYYWGQGVLVTVSS
VL: EVVFTQPHSVSGSPGQTVTISCTRSSGSIDSEYVQWYQQRPGNAPTTVIYKDNQRPSGVPDRFSGSIDSSSNSASLAISGLKSEDEADYYCQSADGNYHPVFGEGTRLTVL
[4]
  EC50: 1.74 µg/mL
[5]
  EC50: 0.01 µg/mL

B6: antibody 578S (antibody, V domains shown)
VH: EVQLVESGGGVVQPGRSLRLSCAASGFTFSSYELHWVRQAPGKGLEWVAVISYDGSSKYYADSLKGRFTISRDNSKNTLSLQMNSLRAEDTAMYYCVRQSEAYCSDGRCDWRRALDIWGQGTMVTVSP
VL: DIQMTQSPSSLSASVGDRVTITCQASQDIKNYLNWYQQKPGKAPKLLIYDVSKLETGVPSRFSGSGSGTDFSFTISSLQPEDIATYYCQQYDNLPSYTFGQGTKLEIK
[6]
  EC50: 0.09 µg/mL
[7]
  % inhibition of binding: 11.1%
[8]
  % inhibition of binding: 7.8%
[9]
  % inhibition of binding: 7.51%
[10]
  % inhibition of binding: 86.6%

B7: antibody 310L (antibody, V domains shown)
VH: EMQLVESGGGLVQPGGSLRLSCAASGFTFDAYAMHWVRQRPGKGLEWISGIIWSGRTTYYADSVKGRFTFSRDNSKNSLYLEMNSLKPEDTALYYCAKDSWNYGVYNSLDVWGRGILVTVSS
VL: QSVLTQPPSVSGAPGQRVTISCTGSSSNVGPHYVSWYQHLPGTTPKLLIFQDNKRPSGVSDRFSGSKSASSASLTITGLQTEDEADYYCLSYDSSLNVYIFGSGTRLTVL
[4]
  EC50: 0.34 µg/mL
[5]
  EC50: 0.01 µg/mL

B8: antibody 102S (antibody, V domains shown)
VH: EVQLVESGGGLVQPGGSLRLSCSASGFTFHSYDMNWARQAPGKGLEWVSEISSSGQSKNYADSVRGRFTISRDNAKNSLYLQINSLRSEDTAVYYCARVGFVAKFGSDFSITHGTYYLDYWGQGTLVTVSS
VL: QLVLTQSPATLSLSPGERATLSCRASQSVSNYLAWYQQKPGQAPRLLIYDASNRAPGVPARFSGSGSGTDFSLTISSLEPEDFAVYYCLQRSNWPPWTFGQGTKVEIK
[6]
  EC50: 0.09 µg/mL
[7]
  % inhibition of binding: 19.4%
[8]
  % inhibition of binding: 10.3%
[9]
  % inhibition of binding: 11.9%
[10]
  % inhibition of binding: 78.2%

B9: antibody 405S (antibody, V domains shown)
VH: EVQLVESGGGLIQPGGSLRLSCAASGFTVSSHYMSWVRQAPGKGLEWVSGIYSGGRTHYADSVKGRFTISRDNSKNTLYLQMNSLRADDTAVYSCARGTLLYLYGMDVWGQGTTVTVSS
VL: QSVLTQPPSVSAAPGQRVTISCTGSSSNIGAGYNVHWYQQLPGAAPKLLIYGNTNRPSGVPDRFSGSKSGTSASLAITGLQAEDEADYYCQSFDSSLSGVFGTGTKVTVL
[6]
  EC50: 0.04 µg/mL
[7]
  % inhibition of binding: 10.1%
[8]
  % inhibition of binding: 7.24%
[9]
  % inhibition of binding: 11.1%
[10]
  % inhibition of binding: 84.1%

B10: antibody 231L (antibody, V domains shown)
VH: EVQLVESGGGLVQPGGSLRLSCAASAFTFDDYAMHWVRQAPGKGLEWVSGITWSGLSTYYADSVKGRFTISRDNAKNSLYLQMNSLRVEDTALYYCAKSGNNSPFSGLDSWGQGAVVTVSS
VL: QSVLTQPPSVSGAPGQRVTVSCTGSSSNIGAGSYVQWYQQLPGTAPKLLIYENNKRPSGVSDRFSGSKSGTSASLTITGLQSEDEADYYCQSYDSSLNAYIFGAGTRLTVL
[4]
  EC50: 0.02 µg/mL
[5]
  EC50: 0.01 µg/mL

B11: antibody 315L (antibody, V domains shown)
VH: QVQLQESGPGLVKPSETLSLTCTVSGGSITGNYWTWVRQPPGKGLQYIGRFDAGGKTYYNPPLKSRVSILGDKSKNQVSLNLTSVTVADTGVYYCAREQWGQLLSGSFDVWGRGVLVTVSS
VL: SYELTQPPSVSVSPGQTARITCSGDALPDYYAHWYQQKSGQAPMLVIYKDTERPSGIPERFSGSSSGTTVSLTISGVQAEDEADYYCQSGDSSGNHWVFGGGTRLTVL
[4]
  EC50: 0.12 µg/mL
[5]
  EC50: 1.5 µg/mL

B12: antibody 335S (antibody, V domains shown)
VH: EVQLVESGGGVVQPGRSLRLSCAASGFSFSNYAMHWVRQAPGKGLEWVAVTWYDGSSKYHADSVKGRFTISRDNSKNTLYLQMNSLRAEDTAVYYCARWGMGIVASPGNVLNYYYFMDVWGQGTTVIVSS
VL: SYELTQPPSVSVSPGQTARITCSGNPLPKKHTYWYQQKPGQAPVLMIYKDSERPSRIPERFSGSSSGTTVTLTISGVQAEDEADYYCQSADSTGIVVFGGGTKLTVL
[6]
  EC50: 0.02 µg/mL
[7]
  % inhibition of binding: 8.17%
[8]
  % inhibition of binding: 1.49%
[9]
  % inhibition of binding: 8.78%
[10]
  % inhibition of binding: 80%

B13: antibody 382S (antibody, V domains shown)
VH: QVQLVQSGAEVKKPGSSVKVSCKASGGTFSNYGISWVRQAPGQGLEWMGRNIPIIGIANYAQKFQDRVTITADKSTSTVFMELRSLRYEDTAVYYCARDPLAARRGNWFDPWGQGTLVTVSS
VL: DIQMTQSPSTLSASVGDRVTITCRASQSVSSWLAWYQQKPGKAPKLLIYDASTLQSGVPSRFSGSGSGTEFTLTISSLQPDDFATYYCQQYNSYSYTFGQGTKLEIK
[6]
  EC50: 0.26 µg/mL
[7]
  % inhibition of binding: 13.6%
[8]
  % inhibition of binding: 10.7%
[9]
  % inhibition of binding: 17.6%
[10]
  % inhibition of binding: 84.9%

B14: antibody 206L (antibody, V domains shown)
VH: EVQLVESGGGVVQPGGSLRLSCAASGFTFDDYAMHWVRQAPGKGLEWVSGISWSGGNTYYADSVKGRFTVSRENAKNSLYLQMNRLRAEDTAFYNCARTSQGGAVVFSAPNYWGQGVLVTVSS
VL: QSVLTQAPSVSGAPGQRVTISCTGSSSNIGGYYVQWYQQLPGRAPKLLIYENNKRPSGVSDRFSGSRSASSASLTITGLQSEDEADYYCQSYDSRLNGYIFGGGTRLTVL
[4]
  EC50: 0.2 µg/mL
[5]
  EC50: 0.01 µg/mL

B15: antibody 285S (antibody, V domains shown)
VH: QVQLVQSGAEVKKPGSSVKVSCKASGGTFSTYAITWVRQAPGQGLEWMGRIIPILRVANYAQKFQGRVTITADSSTSTAYMELSSLRSEDTAVYYCANLLAYCGGDCRSDYWGQGTLVTVSS
VL: EIVLTQSPGTLSLSPGERATLSCRASQSVKNSYLAWYHQKPGQAPRLLIYGASSRATGIPDRFSGSGSGTDFTLTISRLEPEDFAVYYCQQYGSSLWTFGQGTKVDVK
[6]
  EC50: 0.02 µg/mL
[7]
  % inhibition of binding: 3.29%
[8]
  % inhibition of binding: -6.78%
[9]
  % inhibition of binding: 7.47%
[10]
  % inhibition of binding: 64.6%
